As usually defined, the Ki is the equilibrium dissociation constant of an inhibitor or competing ligand from its target. A high value points to a looser hold on the target.

These results are taken from patent US20220008545A1 (Bicycle, published 2022).

Starred links: 1 amine or outer side, 2 acyl side, 3 side chain; linkers in the order of their positions; H or OH if unused. Positions of bridges follow the written chain, without caps; N, C: chain ends. No end group written: not given here. TBMB = c1c(C[*:1])cc(C[*:3])cc1C[*:2]

Experiment [1] deals with T1, fibroblast activation protein α (FAPα) (UniProt Q12884 26-760, limits assumed).
T1 sequence (looked up): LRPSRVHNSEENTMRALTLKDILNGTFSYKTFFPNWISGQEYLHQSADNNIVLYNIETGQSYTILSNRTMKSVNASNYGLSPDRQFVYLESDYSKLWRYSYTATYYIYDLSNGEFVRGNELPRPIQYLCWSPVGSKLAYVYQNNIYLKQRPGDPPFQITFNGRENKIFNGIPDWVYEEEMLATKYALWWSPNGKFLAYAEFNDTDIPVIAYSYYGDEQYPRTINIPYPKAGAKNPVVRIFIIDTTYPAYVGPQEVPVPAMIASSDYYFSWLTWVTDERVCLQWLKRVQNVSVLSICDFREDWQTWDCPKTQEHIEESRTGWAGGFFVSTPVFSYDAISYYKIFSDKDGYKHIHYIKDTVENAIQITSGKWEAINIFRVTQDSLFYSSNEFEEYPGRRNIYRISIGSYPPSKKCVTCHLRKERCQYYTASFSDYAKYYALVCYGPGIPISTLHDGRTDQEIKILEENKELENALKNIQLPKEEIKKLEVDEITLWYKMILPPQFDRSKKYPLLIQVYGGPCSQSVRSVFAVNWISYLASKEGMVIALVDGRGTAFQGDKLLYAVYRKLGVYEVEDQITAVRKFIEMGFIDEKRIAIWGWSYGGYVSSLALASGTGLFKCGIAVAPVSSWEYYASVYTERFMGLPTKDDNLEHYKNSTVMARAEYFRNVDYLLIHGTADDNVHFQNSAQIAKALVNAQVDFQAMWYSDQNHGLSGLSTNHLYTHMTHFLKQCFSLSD
Kind of experiment: cell-based or functional assay.

Experiment [2] addresses T1, fibroblast activation protein α (FAPα). Kind of experiment: fluorescence polarization FAPα binding assay. Here is the method:
FAPα binding was measured using the fluorescence polarization assay methodology described in Yanagisawa et al (1997) J Biol Chem 272(13), 8539-8545. FAPα enzyme inhibition was measured using the assay methodology described in Poplawski et al (2013) J Med Chem 56(9), 3467-3477.

B1: A-(SEQ ID NO: 1)-A (peptide)
peptide: ACHSDYLICPYGDFFCA
modifications: linker 2-9-16 via TBMB
notes: all L-amino acids; also called CiHSDYLICiiPYGDFFCiii with N- and C-terminal Ala
In the case of B1, in experiment [1], the “FAPα Enzyme Inhibition IC50” value was determined as 1330 nM. Besides, in experiment [2], the Ki stood at 113 nM.

For ACTDCDTDSLIYCA (linker 2-5-13 via TBMB, all L-amino acids) [A-(SEQ ID NO: 2)-A], the “FAPα Enzyme Inhibition IC50” value in experiment [1] was over 50000 nM. The Ki in experiment [2] amounted to 4520 nM.

Regarding ACDDCLISMRDACA (linker 2-5-13 via TBMB, all L-amino acids) [A-(SEQ ID NO: 4)-A], the “FAPα Enzyme Inhibition IC50” value in experiment [1] came to 16700 nM. In experiment [2], this molecule registered a Ki of 1720 nM.

B2: A-(SEQ ID NO: 3)-A (peptide)
peptide: ACPPTEYDCLIFFSECA
modifications: linker 2-9-16 via TBMB
notes: all L-amino acids; also called CiPPTEYDCiiLIFFSECiii with N- and C-terminal Ala
For B2, in experiment [1], the “FAPα Enzyme Inhibition IC50” value came out at 5760 nM. In addition, the affinity in experiment [2], expressed as Ki, was 578 nM.
